Data reported in patent US20230032643A1 (GlaxoSmithKline, published 2023).

Key:
[1] = molecular target: T1, human CR2 on primary human cells (B cells in PBMCs; tonsil follicular dendritic cells) (human, UniProt P20023 21-1033); experiment: flow cytometry on primary human tonsil FDCs; unlabelled mAb 1053 titrated, then saturating mAb 1053-PE (1 ug/ml)
T1 construct: Endogenous CR2 on primary human CD20+ B cells or tonsil FDCs; also called CD21
T1 sequence: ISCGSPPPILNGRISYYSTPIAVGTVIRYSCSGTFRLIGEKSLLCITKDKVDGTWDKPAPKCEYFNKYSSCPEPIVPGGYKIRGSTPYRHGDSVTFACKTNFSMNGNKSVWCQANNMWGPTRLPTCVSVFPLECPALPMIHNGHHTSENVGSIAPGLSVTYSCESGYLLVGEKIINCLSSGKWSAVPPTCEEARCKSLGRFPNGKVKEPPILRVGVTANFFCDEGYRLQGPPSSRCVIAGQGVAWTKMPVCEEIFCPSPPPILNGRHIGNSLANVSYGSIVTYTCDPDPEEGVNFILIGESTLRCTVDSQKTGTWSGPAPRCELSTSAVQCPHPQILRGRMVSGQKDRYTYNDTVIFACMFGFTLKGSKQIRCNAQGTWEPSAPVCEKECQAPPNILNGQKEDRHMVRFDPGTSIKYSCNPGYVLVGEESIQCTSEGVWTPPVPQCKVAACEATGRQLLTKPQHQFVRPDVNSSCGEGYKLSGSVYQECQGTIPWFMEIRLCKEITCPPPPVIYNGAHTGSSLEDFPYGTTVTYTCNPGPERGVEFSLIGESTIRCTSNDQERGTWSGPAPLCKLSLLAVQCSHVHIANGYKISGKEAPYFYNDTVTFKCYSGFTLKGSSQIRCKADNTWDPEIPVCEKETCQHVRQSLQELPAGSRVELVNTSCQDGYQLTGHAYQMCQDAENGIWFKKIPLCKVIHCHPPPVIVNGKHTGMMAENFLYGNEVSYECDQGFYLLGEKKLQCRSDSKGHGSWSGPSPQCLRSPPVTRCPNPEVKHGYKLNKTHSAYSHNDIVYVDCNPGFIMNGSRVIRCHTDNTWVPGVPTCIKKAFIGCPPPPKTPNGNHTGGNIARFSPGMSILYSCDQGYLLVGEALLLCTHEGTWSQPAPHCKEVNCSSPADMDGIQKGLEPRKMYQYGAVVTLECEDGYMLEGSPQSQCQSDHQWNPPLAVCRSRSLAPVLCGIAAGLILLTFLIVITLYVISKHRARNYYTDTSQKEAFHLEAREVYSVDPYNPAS

[2] = molecular target: T1, human CR2 on primary human cells (B …); experiment: flow cytometry; inhibition of C3dg:streptavidin-APC ligand complex binding to primary human tonsil FDCs, mAb pre-incubated
[3] = molecular target: T1, human CR2 on primary human cells (B …); experiment: flow cytometry; inhibition of serum-opsonised PnPS14 binding to CD20+ B cells in human PBMCs, mAb pre-incubated
[4] = molecular target: T2, recombinant soluble cynomolgus macaque CR2 (cynomolgus macaque, UniProt A0A2K5URG6 21-972); experiment: SPR (BIACORE T200), HEK-expressed antibody captured on Protein A, soluble CR2 as analyte, 25 C, equilibrium model
T2 construct: also called Cyno CR2; cyno CR2 antigen
T2 sequence: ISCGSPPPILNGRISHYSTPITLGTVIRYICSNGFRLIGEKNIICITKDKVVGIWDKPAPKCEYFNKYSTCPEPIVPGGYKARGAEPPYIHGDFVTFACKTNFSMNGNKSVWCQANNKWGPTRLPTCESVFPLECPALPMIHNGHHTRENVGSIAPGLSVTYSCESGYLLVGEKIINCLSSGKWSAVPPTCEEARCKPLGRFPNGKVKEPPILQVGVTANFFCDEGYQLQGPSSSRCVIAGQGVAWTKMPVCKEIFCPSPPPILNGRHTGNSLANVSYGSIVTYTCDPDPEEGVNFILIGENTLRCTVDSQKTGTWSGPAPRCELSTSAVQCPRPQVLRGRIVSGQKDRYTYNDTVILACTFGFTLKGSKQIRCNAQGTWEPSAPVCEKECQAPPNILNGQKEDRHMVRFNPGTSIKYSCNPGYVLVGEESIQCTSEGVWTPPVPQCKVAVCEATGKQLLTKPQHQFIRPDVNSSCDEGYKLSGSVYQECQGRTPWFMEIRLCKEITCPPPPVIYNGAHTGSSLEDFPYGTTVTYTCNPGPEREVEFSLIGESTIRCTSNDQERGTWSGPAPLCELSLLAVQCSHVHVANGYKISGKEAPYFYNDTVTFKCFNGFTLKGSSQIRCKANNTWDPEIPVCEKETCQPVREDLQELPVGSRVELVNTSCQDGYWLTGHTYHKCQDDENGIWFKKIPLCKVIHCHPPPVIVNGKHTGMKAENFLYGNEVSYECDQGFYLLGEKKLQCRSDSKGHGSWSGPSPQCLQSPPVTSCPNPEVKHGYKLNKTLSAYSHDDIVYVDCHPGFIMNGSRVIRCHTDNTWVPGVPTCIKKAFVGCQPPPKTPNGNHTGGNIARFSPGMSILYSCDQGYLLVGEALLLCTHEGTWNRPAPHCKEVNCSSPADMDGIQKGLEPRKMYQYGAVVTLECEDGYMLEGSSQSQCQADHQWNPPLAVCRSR

[5] = molecular target: T3, recombinant soluble human CR2 (human, UniProt P20023 21-971, limits assumed); experiment: as above
T3 construct: it includes the transmembrane and cytoplasmic parts, which a soluble form would lack; also called human CR2 antigen
T3 sequence: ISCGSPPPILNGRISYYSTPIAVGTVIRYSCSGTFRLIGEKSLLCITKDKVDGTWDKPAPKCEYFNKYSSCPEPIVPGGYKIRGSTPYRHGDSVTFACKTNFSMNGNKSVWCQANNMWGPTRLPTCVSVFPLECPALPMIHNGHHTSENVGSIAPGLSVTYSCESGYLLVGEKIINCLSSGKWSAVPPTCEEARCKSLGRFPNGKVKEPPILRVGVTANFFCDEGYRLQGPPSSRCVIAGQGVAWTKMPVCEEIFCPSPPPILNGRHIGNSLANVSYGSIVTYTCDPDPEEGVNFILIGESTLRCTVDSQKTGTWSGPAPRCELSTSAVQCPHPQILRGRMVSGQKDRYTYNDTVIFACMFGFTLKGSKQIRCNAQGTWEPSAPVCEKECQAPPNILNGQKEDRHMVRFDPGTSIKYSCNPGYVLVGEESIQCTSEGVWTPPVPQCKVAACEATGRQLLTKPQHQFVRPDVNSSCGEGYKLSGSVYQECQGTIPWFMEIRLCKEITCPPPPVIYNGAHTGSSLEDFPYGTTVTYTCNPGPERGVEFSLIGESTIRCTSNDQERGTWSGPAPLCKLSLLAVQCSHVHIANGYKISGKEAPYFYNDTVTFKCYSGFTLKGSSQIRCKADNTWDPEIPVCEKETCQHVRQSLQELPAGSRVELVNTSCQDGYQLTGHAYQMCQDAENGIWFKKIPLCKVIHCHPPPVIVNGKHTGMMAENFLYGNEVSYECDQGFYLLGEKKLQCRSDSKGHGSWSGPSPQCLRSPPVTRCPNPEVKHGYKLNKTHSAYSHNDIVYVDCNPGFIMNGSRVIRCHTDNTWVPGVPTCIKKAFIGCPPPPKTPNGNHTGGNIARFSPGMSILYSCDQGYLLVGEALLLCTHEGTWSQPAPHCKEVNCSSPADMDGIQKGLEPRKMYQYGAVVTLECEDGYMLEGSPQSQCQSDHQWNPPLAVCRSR

[6] = molecular target: T1, human CR2 on primary human cells (B …); experiment: flow cytometry; inhibition of C3dg:Streptavidin-APC complex binding to CD20+ B cells in human PBMCs, mAb pre-incubated

- EC50 [1]: 62.2 pM
- IC50 [2]: 47 pM
- IC50 [3]: 37.9 pM
- Kd [4]: 287 pM
- Kd [5]: 257 pM
- IC50 [6]: 11.9 pM
B1: mAb 1053 (antibody, human IgG1, kappa, V domains shown)
VH: QLQLQESGPGLVKPSETLSLTCTVSGGSISSDSYYWGWIRQPPGKGLEWIGSIHYSGSTYYNPPLESRVTISVDTSKNQFSLKLSSVTAADTAVYYCAREGGPRHGWSWGQGTLVTVSS
VL: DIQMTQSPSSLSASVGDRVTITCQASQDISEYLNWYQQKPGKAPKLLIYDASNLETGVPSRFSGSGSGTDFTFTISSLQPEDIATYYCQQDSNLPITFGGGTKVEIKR
notes: CHO-expressed unless stated otherwise
